Measured values as given in US20250361322A1 (ICONIC THERAPEUTICS, published 2025).

Experiments:
[1] = target: Relipidated TF (UniProt P13726 33-295, limits assumed); assay: cell-based or functional assay
[2] = target: human Tissue Factor (hTF) (human, UniProt P13726 33-295); assay: cell-based or functional assay
[3] = target: T1, pig TF ECD-His (TF-His) protein (pig (Sus scrofa)); assay: Biacore; antibody captured by anti-human IgG on CM5 chip, titration of pig TF-His, 1:1 model
T1 construct: also called pig TF-His; pTF
T1 chain: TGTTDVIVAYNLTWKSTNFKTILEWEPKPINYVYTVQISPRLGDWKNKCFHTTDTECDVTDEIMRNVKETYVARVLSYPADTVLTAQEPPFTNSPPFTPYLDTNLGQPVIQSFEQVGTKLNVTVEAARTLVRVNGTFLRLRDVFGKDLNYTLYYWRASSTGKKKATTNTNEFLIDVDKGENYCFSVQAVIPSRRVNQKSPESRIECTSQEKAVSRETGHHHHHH
Procedure: The ability of certain antibodies was tested for binding to pig TF. For pig TF Biacore-based measurements, a given anti-TF antibody was captured by an anti-human IgG antibody covalently coupled to a CM5 chip (GE Healthcare Bio-Sciences). Association between the anti-TF antibodies and a five-point three-fold titration of pig TF-His starting at 100 nM was measured for 180 to 240 sec. Subsequently, dissociation between the anti-TF antibody and TF-His was measured for 1800 sec. Kinetic data was analyzed and fitted globally using a 1:1 binding model.

[4] = target: T2, rabbit TF ECD-His (TF-His) protein (rabbit (Oryctolagus cuniculus), UniProt P24055 33-250); assay: Biacore; antibody captured by anti-human IgG on CM5 chip, titration of rabbit TF-His, 1:1 model
T2 construct: also called rabbit TF-His
T2 sequence (P24055 other isoform, or with tags, fused parts or gaps): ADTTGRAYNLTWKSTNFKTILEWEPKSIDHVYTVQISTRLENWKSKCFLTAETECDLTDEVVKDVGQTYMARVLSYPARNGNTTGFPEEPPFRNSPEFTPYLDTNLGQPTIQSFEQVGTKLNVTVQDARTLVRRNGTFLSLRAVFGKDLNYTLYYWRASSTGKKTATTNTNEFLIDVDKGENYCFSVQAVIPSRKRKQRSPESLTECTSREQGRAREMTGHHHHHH
Procedure: The ability of certain antibodies was tested for binding to rabbit TF. For rabbit TF Biacore-based measurements, a given anti-TF antibody was captured by an anti-human IgG antibody covalently coupled to a CM5 chip (GE Healthcare Bio-Sciences). Association between the anti-TF antibodies and a five-point three-fold titration of rabbit TF-His starting at 100 nM was measured for 180 to 240 sec. Subsequently, dissociation between the anti-TF antibody and TF-His was measured for 1800 sec. Kinetic data was analyzed and fitted globally using a 1:1 binding model.

B1: 25A5 (antibody, human IgG1, V domains shown)
VH: QVQLVQSGAEVKKPGASVKVSCKASGYTFDVYGISWVRQAPGQGLEWMGWIAPYSGNTNYAQKLQGRVTMTTDTSTSTAYMELRSLRSDDTAVYYCARDAGTYSPFGYGMDVWGQGTTVTVSS
VL: DIQMTQSPSTLSASVGDRVTITCRASESISNWLAWYQQKPGKAPKLLIYKAYSLEYGVPSRFSGSGSGTEFTLTISSLQPDDFATYYCQQFQKLPPFTFGGGTKVEIK
% ETP at 10 nM Ab (TGA without antibody pre-incubation) [1]: 99% | % Peak IIa at 10 nM Ab (TGA without antibody pre-incubation) [1]: 98% | % Peak IIa at 50 nM Ab (TGA without antibody pre-incubation) [1]: 98% | % Peak IIa at 100 nM Ab (TGA without antibody pre-incubation) [1]: 98% | ETP at 10 nM Ab (TGA without antibody pre-incubation) [1]: 2270 nM·min | ETP at 50 nM Ab (TGA without antibody pre-incubation) [1]: 2320 nM·min | ETP at 100 nM Ab (TGA without antibody pre-incubation) [1]: 2390 nM·min | Lag Time at 10 nM Ab (TGA without antibody pre-incubation) [1]: 4.7 min | Lag Time at 50 nM Ab (TGA without antibody pre-incubation) [1]: 4.8 min | Lag Time at 100 nM Ab (TGA without antibody pre-incubation) [1]: 5.1 min | Peak IIa at 10 nM Ab (TGA without antibody pre-incubation) [1]: 343 nM | Peak IIa at 50 nM Ab (TGA without antibody pre-incubation) [1]: 344 nM | Peak IIa at 100 nM Ab (TGA without antibody pre-incubation) [1]: 342 nM | ttPeak at 10 nM Ab (TGA without antibody pre-incubation) [1]: 8 min | ttPeak at 50 nM Ab (TGA without antibody pre-incubation) [1]: 8.1 min | ttPeak at 100 nM Ab (TGA without antibody pre-incubation) [1]: 8.5 min

B2: anti-TF antibody 25A (antibody, human IgG1, V domains shown)
VH: QVQLVQSGAEVKKPGASVKVSCKASGYTFDVYGISWVRQAPGQGLEWMGWIAPYNGNTNYAQKLQGRVTMTTDTSTSTAYMELRSLRSDDTAVYYCARDAGTYSPFGYGMDVWGQGTTVTVSS
VL: DIQMTQSPSTLSASVGDRVTITCRASQSISSWLAWYQQKPGKAPKLLIYKASSLESGVPSRFSGSGSGTEFTLTISSLQPDDFATYYCQQFQSLPPFTFGGGTKVEIK
notes: Human IgG1
IC50, cell viability of A431 cells, Secondary ADC (antibody with anti-human Fc Fab:MMAF), Continuous (FIG. 18B) [2]: 0.11 nM | Kd [3]: 18.7 nM | Kd [4]: 50.5 nM

B3: anti-TF antibody 25A3 (antibody, human IgG1, V domains shown)
VH: QVQLVQSGAEVKKPGASVKVSCKASGYTFDVYGISWVRQAPGQGLEWMGWIAPYSGNTNYAQKLQGRVTMTTDTSTSTAYMELRSLRSDDTAVYYCARDAGTYSPFGYGMDVWGQGTTVTVSS
VL: DIQMTQSPSTLSASVGDRVTITCQASQSINNWLAWYQQKPGKAPKLLIYKAYNLESGVPSRFSGSGSGTEFTLTISSLQPDDFATYYCQLFQSLPPFTFGGGTKVEIK
notes: Human IgG1
IC50, cell viability of A431 cells, Secondary ADC (antibody with anti-human Fc Fab:MMAF), Continuous (FIG. 18B) [2]: 0.09 nM | Kd [3]: 5.5 nM

B4: anti-TF antibody 25G9 (antibody, human IgG1, V domains shown)
VH: QVQLVQSGAEVKKPGASVKVSCKASGYTFRSYGISWVRQAPGQGLEWMGWVAPYSGNTNYAQKLQGRVTMTTDTSTSTAYMELRSLRSDDTAVYYCARDAGTYSPYGYGMDVWGQGTTVTVSS
VL: DIQMTQSPSTLSASVGDRVTITCQASQSIDSWLAWYQQKPGKAPKLLIYSASYLESGVPSRFSGSGSGTEFTLTISSLQPDDFATYYCQRFQSLPPFTFGGGTKVEIK
notes: Human IgG1
Kd [3]: 3.3 nM | Kd [4]: 4.2 nM

B5: anti-TF antibody 25A5 (antibody, human IgG1, V domains shown)
VH: QVQLVQSGAEVKKPGASVKVSCKASGYTFDVYGISWVRQAPGQGLEWMGWIAPYSGNTNYAQKLQGRVTMTTDTSTSTAYMELRSLRSDDTAVYYCARDAGTYSPFGYGMDVWGQGTTVTVSS
VL: DIQMTQSPSTLSASVGDRVTITCRASESISNWLAWYQQKPGKAPKLLIYKAYSLEYGVPSRFSGSGSGTEFTLTISSLQPDDFATYYCQQFQKLPPFTFGGGTKVEIK
notes: Human IgG1
Kd [3]: 5.2 nM | Kd [4]: 5.4 nM

B6: anti-TF antibody 25G1 (antibody, human IgG1, V domains shown)
VH: QVQLVQSGAEVKKPGASVKVSCKASGYTFRSYGISWVRQAPGQGLEWMGWVAPYSGNTNYAQKLQGRVTMTTDTSTSTAYMELRSLRSDDTAVYYCARDAGTYSPYGYGMDVWGQGTTVTVSS
VL: DIQMTQSPSTLSASVGDRVTITCRASHSIDSWLAWYQQKPGKAPKLLIYKASYLESGVPSRFSGSGSGTEFTLTISSLQPDDFATYYCQLFQSLPPFTFGGGTKVEIK
notes: Human IgG1
IC50, cell viability of A431 cells, Secondary ADC (antibody with anti-human Fc Fab:MMAF), Continuous (FIG. 18B) [2]: 0.08 nM | Kd [3]: 2.6 nM | Kd [4]: 3.6 nM

B7: anti-TF antibody 25A5-T (antibody, human IgG1, V domains shown)
VH: QVQLVQSGAEVKKPGASVKVSCKASGYTFDAYGISWVRQAPGQGLEWMGWIAPYSGNTNYAQKLQGRVTMTTDTSTSTAYMELRSLRSDDTAVYYCARDAGTYSPFGYGMDVWGQGTTVTVSS
VL: DIQMTQSPSTLSASVGDRVTITCRASESISNWLAWYQQKPGKAPKLLIYKAYSLEYGVPSRFSGSGSGTEFTLTISSLQPDDFATYYCQQFQKLPPFTFGGGTKVEIK
notes: Human IgG1
Kd [3]: 4.5 nM | Kd [4]: 5.4 nM

B8: anti-TF antibody 25G (antibody, human IgG1, V domains shown)
VH: QVQLVQSGAEVKKPGASVKVSCKASGYTFRSYGISWVRQAPGQGLEWMGWVAPYNGNTNYAQKLQGRVTMTTDTSTSTAYMELRSLRSDDTAVYYCARDAGTYSPYGYGMDVWGQGTTVTVSS
VL: DIQMTQSPSTLSASVGDRVTITCRASQSISSWLAWYQQKPGKAPKLLIYKASSLESGVPSRFSGSGSGTEFTLTISSLQPDDFATYYCQQFQSLPPFTFGGGTKVEIK
notes: Human IgG1
Kd [3]: 26 nM | Kd [4]: 75.5 nM
